B1: scFv; the commonest letter at each place (parent)
chain 1: EVKLDETGGGLVQPGRPMKLSCVASGFTFSDYWMNWVRQSPEKGLEWVAQIRNKPYNYETYYSDSVKGRFTISRDDSKSSVYLQMNNLRVEDMGIYYCTGSYYGMDYWGQGTSVTVS
chain 2: DVVMTQTPLSLPVSLGDQASISCRSSQSLVHSNGNTYLRWYLQKPGQSPKVLIYKVSNRFSGVPDRFSGSGSGTDFTLKISRVEAEDLGVYFCSQSTHVPWTFGGGTKLEIK

In series [1] the parent is B1. The series is described as follows: Kd (Tite-Seq). The conditions noted are these: with fluorescein; format: scFv 4-4-20, heavy + light.
Series [2] covers variants of B1. The experiment in a line: yeast surface expression (ratio to wild type); higher = more expressed. The following applies: format: scFv 4-4-20, heavy + light.

Experimental findings from the FLAb antibody collection (doi:10.7554/elife.23156) are described below.

Some results are limits rather than exact numbers.

As to chain 1 EVKLDETGGGLVQPGRPMKLSCVASGFTFSDYWMNWVRQSPEKGLEWVAQIRNKPYNYETYYSDSVKGRFTISRDDSKSSVYLQMNNLRVEDMGIYYCTRSYIGMDYWGQGTSVTVS chain 2 DVVMTQTPLSLPVSLGDQASISCRSSQSLVHSNGNTYLRWYLQKPGQSPKVLIYKVSNRFSGVPDRFSGSGSGTDFTLKISRVEAEDLGVYFCSQSTHVPWTFGGGTKLEIK [chain 1 G100R Y103I], the Kd – broadly, the free concentration of one partner at which half of the binding sites on the other are occupied at equilibrium, for simple one-to-one binding – in series [1] was no less than 10 µM. Further, the yeast surface expression in series [2] came out at 0.418.

Regarding chain 1 EVKLDETGGGLVQPGRPMKLSCVASGFTFSDYWMNWVRQSPEKGLEWVAQIRNKPYNYETYYSDSVKGRFTISRDDSKSSVYLQMNNLRVEDMGIYYCTRSYYGMDYCGQGTSVTVS chain 2 DVVMTQTPLSLPVSLGDQASISCRSSQSLVHSNGNTYLRWYLQKPGQSPKVLIYKVSNRFSGVPDRFSGSGSGTDFTLKISRVEAEDLGVYFCSQSTHVPWTFGGGTKLEIK [chain 1 G100R W108C], the equilibrium dissociation constant (Kd) in series [1] is no less than 10 µM. For the same variant, the yeast surface expression in series [2] is 0.246.

As for chain 1 EVKLDETGGGLVQPGRPMKLSCVASGFTFSDYWMNWVRQSPEKGLEWVAQIRNKPYNYETYYSDSVKGRFTISRDDSKSSVYLQMNNLRVEDMGIYYCTRSYYGMDYYGQGTSVTVS chain 2 DVVMTQTPLSLPVSLGDQASISCRSSQSLVHSNGNTYLRWYLQKPGQSPKVLIYKVSNRFSGVPDRFSGSGSGTDFTLKISRVEAEDLGVYFCSQSTHVPWTFGGGTKLEIK [chain 1 G100R W108Y], in series [1], the dissociation constant (Kd) was no less than 10 µM. In addition, the yeast surface expression in series [2] is 0.478.

For the variant chain 1 EVKLDETGGGLVQPGRPMKLSCVASGFTFSDYWMNWVRQSPEKGLEWVAQIRNKPYNYETYYSDSVKGRFTISRDDSKSSVYLQMNNLRVEDMGIYYCTRSYYGMDYNGQGTSVTVS chain 2 DVVMTQTPLSLPVSLGDQASISCRSSQSLVHSNGNTYLRWYLQKPGQSPKVLIYKVSNRFSGVPDRFSGSGSGTDFTLKISRVEAEDLGVYFCSQSTHVPWTFGGGTKLEIK [chain 1 G100R W108N], in series [1], the dissociation constant Kd was no less than 10 µM. For the same variant, the yeast surface expression in series [2] amounted to 0.348.

For chain 1 EVKLDETGGGLVQPGRPMKLSCVASGFTFSDYWMNWVRQSPEKGLEWVAQIRNKPYNYETYYSDSVKGRFTISRDDSKSSVYLQMNNLRVEDMGIYYCTRSIYGMDYWGQGTSVTVS chain 2 DVVMTQTPLSLPVSLGDQASISCRSSQSLVHSNGNTYLRWYLQKPGQSPKVLIYKVSNRFSGVPDRFSGSGSGTDFTLKISRVEAEDLGVYFCSQSTHVPWTFGGGTKLEIK [chain 1 G100R Y102I], in series [1], the dissociation constant (Kd) was no less than 10 µM. In addition, the yeast surface expression in series [2] was determined as 0.483.

For the variant chain 1 EVKLDETGGGLVQPGRPMKLSCVASGFTFSDYWMNWVRQSPEKGLEWVAQIRNKPYNYETYYSDSVKGRFTISRDDSKSSVYLQMNNLRVEDMGIYYCTRSYDGMDYGGQGTSVTVS chain 2 DVVMTQTPLSLPVSLGDQASISCRSSQSLVHSNGNTYLRWYLQKPGQSPKVLIYKVSNRFSGVPDRFSGSGSGTDFTLKISRVEAEDLGVYFCSQSTHVPWTFGGGTKLEIK [chain 1 G100R Y103D W108G], in series [1], the Kd was no less than 10 µM. In addition, in series [2], the yeast surface expression came out at 0.483.
